Test results from publication PMC12781075, “Crosstalk between arachidonic acid metabolism and glycolysis drives integrated metabolic-inflammatory reprogramming in macrophages” (International Journal of Biological Sciences, 2026).
Several values for one entry are separate records, joined by “and”; a condition that tells them apart may be missing. Identical values can stand only once.

Target: pyruvate kinase M2 (mouse (endogenous in RAW264.7)) (UniProt P52480)
Test: cross-linking; RAW264.7 macrophages treated with 15KPF, lysed, lysate incubated with 2.5 mM disuccinimidyl suberate for 30 min; 10% SDS-PAGE and PKM2 immunoblot

pyruvate kinase M2, P52480 1-531 (enzyme; other documents disagree on this pair), sequence (P52480 whole entry): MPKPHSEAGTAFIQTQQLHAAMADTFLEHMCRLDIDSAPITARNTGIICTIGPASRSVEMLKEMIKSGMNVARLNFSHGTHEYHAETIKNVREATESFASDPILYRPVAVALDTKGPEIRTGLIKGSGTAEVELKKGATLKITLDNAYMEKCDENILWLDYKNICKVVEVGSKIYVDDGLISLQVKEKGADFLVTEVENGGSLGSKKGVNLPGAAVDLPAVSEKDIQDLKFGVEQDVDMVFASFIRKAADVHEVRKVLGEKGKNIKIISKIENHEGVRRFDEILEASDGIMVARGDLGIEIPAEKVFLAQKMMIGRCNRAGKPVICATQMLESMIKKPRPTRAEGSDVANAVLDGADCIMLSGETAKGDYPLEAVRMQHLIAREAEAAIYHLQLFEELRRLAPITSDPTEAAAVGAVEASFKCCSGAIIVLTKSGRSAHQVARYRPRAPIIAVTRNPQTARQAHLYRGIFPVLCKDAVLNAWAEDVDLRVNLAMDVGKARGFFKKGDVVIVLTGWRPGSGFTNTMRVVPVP

## pyruvate kinase M2, P52480 1-531 (enzyme; other documents disagree on this pair)
  stoichiometry N: 4 and 2
